From patent US20230227577A1 (MYTHIC THERAPEUTICS, published 2023)

T1: recombinant human DLL3 protein (human, UniProt Q9NYJ7 27-492, limits assumed)
T1 construct: also called rhu DLL3; human biotinylated DLL3
T1 sequence (looked up): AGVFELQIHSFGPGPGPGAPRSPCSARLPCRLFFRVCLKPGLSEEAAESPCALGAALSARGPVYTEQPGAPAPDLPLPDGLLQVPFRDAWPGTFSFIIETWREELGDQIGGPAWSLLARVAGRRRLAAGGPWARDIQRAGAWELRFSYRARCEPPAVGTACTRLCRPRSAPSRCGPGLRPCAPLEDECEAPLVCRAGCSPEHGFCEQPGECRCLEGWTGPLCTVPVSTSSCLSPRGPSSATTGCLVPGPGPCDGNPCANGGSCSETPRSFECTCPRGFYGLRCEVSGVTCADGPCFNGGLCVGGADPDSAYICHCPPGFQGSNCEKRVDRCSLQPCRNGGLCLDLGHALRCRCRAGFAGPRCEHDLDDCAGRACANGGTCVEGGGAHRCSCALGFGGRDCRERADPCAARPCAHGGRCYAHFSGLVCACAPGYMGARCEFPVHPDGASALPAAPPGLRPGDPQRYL

T2: DLL3 target antigen coated on Octet SA tips (binning experiment) (Homo sapiens (Human), UniProt Q9NYJ7 27-492, Probably biotinylated for capture on streptavidin (SA) tips. The site is not stated.)
T2 sequence: T1 sequence (looked up)

T3: mouse DLL3 protein (mouse, UniProt O88516 33-490, limits assumed)
T3 construct: also called murine DLL3
T3 sequence (looked up): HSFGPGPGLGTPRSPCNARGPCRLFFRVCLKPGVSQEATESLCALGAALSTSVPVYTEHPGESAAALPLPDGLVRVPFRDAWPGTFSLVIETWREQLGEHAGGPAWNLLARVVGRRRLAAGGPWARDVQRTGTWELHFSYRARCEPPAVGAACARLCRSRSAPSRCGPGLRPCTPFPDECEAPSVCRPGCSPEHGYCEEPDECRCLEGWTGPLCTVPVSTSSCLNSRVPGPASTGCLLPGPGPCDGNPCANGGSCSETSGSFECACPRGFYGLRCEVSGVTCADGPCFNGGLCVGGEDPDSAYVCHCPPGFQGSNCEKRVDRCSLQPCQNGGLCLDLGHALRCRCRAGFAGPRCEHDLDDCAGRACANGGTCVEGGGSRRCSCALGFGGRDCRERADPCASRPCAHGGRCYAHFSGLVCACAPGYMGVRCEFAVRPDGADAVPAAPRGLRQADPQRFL

T4: mouse DLL3 on CHO cells (mouse, UniProt O88516 33-592)
T4 construct: whole, on cells; also called CHO cells expressing mouse DLL3
T4 sequence (looked up): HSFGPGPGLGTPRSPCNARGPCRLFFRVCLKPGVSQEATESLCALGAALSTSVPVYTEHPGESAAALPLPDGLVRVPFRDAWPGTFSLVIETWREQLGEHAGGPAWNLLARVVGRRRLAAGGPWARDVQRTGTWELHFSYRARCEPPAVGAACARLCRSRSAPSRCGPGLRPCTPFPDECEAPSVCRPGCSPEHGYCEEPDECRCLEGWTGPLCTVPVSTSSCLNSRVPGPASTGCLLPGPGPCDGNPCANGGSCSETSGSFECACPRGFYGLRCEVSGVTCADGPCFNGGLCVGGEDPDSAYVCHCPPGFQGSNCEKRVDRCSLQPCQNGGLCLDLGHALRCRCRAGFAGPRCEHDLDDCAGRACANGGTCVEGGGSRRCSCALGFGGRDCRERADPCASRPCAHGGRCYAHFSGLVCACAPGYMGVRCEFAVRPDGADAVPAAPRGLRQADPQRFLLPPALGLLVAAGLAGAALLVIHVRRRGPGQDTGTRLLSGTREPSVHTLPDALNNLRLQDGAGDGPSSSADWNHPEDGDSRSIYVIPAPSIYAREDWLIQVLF

T5: DLL3 (ELISA DLL3)
T5 construct: also called DLL3 protein in ELISA
T5 chain: T1 sequence (looked up)

B1: 2HCE117 anti-DLL3 VHH (VHH)
VHH: QVQLQESGGGLVQPGGSLRLSCAASGFTFSSYAMSWVRQAPGKGLEWVSDINSGGGSTYYADSVKGRFTISRDNAKNTLYLQMDSLKPEDTAVYYCATPFEIGSWGQGTQVTVSS
notes: In the binning assay it was used as a periplasmic extract
B2: anti-human DLL3 BiTE (bispecific antibody)
chain: QVQLQESGPGLVKPSETLSLTCTVSGGSISSYYWSWIRQPPGKGLEWIGYVYYSGTTNYNPSLKSRVTISVDTSKNQFSLKLSSVTAADTAVYYCASIAVTGFYFDYWGQGTLVTVSSGGGGSGGGGSGGGGSEIVLTQSPGTLSLSPGERVTLSCRASQRVNNNYLAWYQQRPGQAPRLLIYGASSRATGIPDRFSGSGSGTDFTLTISRLEPEDFAVYYCQQYDRSPLTFGGGTKLEIK
notes: also called DLL3 BiTEs
B3: 3HCE87 anti-DLL3 VHH (VHH)
VHH: QVQLQESGGGLVQAGGSLRLSCAASGFIFDDYIIGWFRQAPGKEREFVAAISWSGSATAYADSVKGRFTISRDNAKNTLYLQMNTLKPEDTAVYYCAASSRGPYNSGSSYDYWGQGTQVTVSS
notes: as for B1
B4: 3HCE4 anti-DLL3 VHH (VHH)
VHH: QVQLQESGGGLVQAGASLKLSCAVSGRAGSSYDMGWLRQAPGKEREFVAIITWSGNTAYKDSVKGRFIISRDNAKNTVYLEMNSLAPEDTAVYYCAAALSEKKYEYWGQGTQVTVSS
notes: as for B1

Key:
[1] = molecular target: T1, recombinant human DLL3 protein; experiment: Fortebio Octet Red, DLL3 immobilised on tips, dilution series of the VHH, 1:1 binding model; kon error 7.26E+01; Full R2 0.9111
Experimental: (§1) Additional experiments were carried out to further characterize the binding properties of the anti-DLL3 constructs. Binding properties tested include dissociation constant (KD), off-rate (koff), binding to DLL3 protein by ELISA and binding to CHO cells expressing human, cyno or mouse DLL3. To obtain off-rate (koff), human biotinylated DLL3 was immobilized on Octet SA tips, and cynomolgus or mouse DLL3 was immobilized on Octet AR2G tips. For each DLL3 protein, the binding to a dilution series of each anti-DLL3 construct was measured using Fortebio Octet Red. The dissociation constant (KD), off-rate (koff) and other kinetic parameters for each anti-DLL3 construct were calculated using a 1:1 binding model. In addition, binding of these anti-DLL3 constructs to CHO cells expressing human, cyno or mouse DLL3 protein was analyzed using flow cytometry (FACS).

[2] = molecular target: T1, recombinant human DLL3 protein; experiment: Fortebio Octet Red, DLL3 immobilised on tips, dilution series of the VHH, 1:1 binding model; koff error 2.95E-06; Full R2 0.9111
Experimental: as §1

[3] = molecular target: T2, DLL3 target antigen coated on Octet SA …; experiment: Octet binning on DLL3-coated SA tips; competitor: 2HCE27
Experimental: (§2) Antibody binning experiments were carried out for 5 anti-DLL3 VHHs and an anti-human DLL3 BiTE (SEQ ID NO: 756). The target antigen was coated on a series of Octet SA tips. Each series of tips was first soaked in a periplasmic extract containing one specific VHH. After the response signals reached saturation, the tips were transferred to a mix of PEs containing again the first VHH (at the same concentration) plus a different VHH (termed secondary VHH) for each tip of the series. Secondary VHH that still bind the target antigen in the presence of the first VHH will show an increased response, as compared to the binding response of the first VHH alone. This was repeated for each VHH as primary VHH until all VHH were tested against each other in both directions (as primary and as secondary binder). From the response data, the bins were deduced for each VHH. 2HCE117 and 3HCE4 show competition with the human DLL3 BiTEs, whereas 3HCE56 and 3HCE87 show a partial competition.

[4] = molecular target: T2, DLL3 target antigen coated on Octet SA …; experiment: Octet binning on DLL3-coated SA tips; competitor: 2HCE117
Experimental: as §2

[5] = molecular target: T2, DLL3 target antigen coated on Octet SA …; experiment: Octet binning on DLL3-coated SA tips; competitor: 3HCE4
Experimental: as §2

[6] = molecular target: T3, mouse DLL3 protein; experiment: Octet (DLL3 on AR2G tips), ELISA and FACS; values only in FIG. 3
[7] = molecular target: T4, mouse DLL3 on CHO cells; experiment: flow cytometry (FACS) on CHO cells expressing mouse DLL3
Experimental: as §1

[8] = molecular target: T5, DLL3 (ELISA DLL3); experiment: ELISA, ratio of the signal on DLL3 to the signal on the control
[9] = molecular target: T2, DLL3 target antigen coated on Octet SA …; experiment: Octet binning on DLL3-coated SA tips; competitor: 3HCE87
Experimental: as §2

[10] = molecular target: T2, DLL3 target antigen coated on Octet SA …; experiment: Octet binning on DLL3-coated SA tips; competitor: DLL3 BiTEs
Experimental: as §2

[11] = molecular target: T2, DLL3 target antigen coated on Octet SA …; experiment: Octet binning on DLL3-coated SA tips; competitor: 3HCE56
Experimental: as §2

[12] = molecular target: T1, recombinant human DLL3 protein; experiment: Fortebio Octet Red, DLL3 immobilised on tips, dilution series of the VHH, 1:1 binding model; KD error 1.32E-09; Full R2 0.9111
Experimental: as §1

[13] = molecular target: T1, recombinant human DLL3 protein; experiment: Fortebio Octet Red, DLL3 immobilised on tips, dilution series of the VHH, 1:1 binding model; koff error 5.76E-06; Full R2 0.9522
Experimental: as §1

[14] = molecular target: T1, recombinant human DLL3 protein; experiment: Fortebio Octet Red, DLL3 immobilised on tips, dilution series of the VHH, 1:1 binding model; KD error 7.00E-11; Full R2 0.9522
Experimental: as §1

[15] = molecular target: T1, recombinant human DLL3 protein; experiment: Fortebio Octet Red, DLL3 immobilised on tips, dilution series of the VHH, 1:1 binding model; kon error 2.27E+03; Full R2 0.9522
Experimental: as §1

[16] = molecular target: T1, recombinant human DLL3 protein; experiment: Fortebio Octet Red, DLL3 immobilised on tips, dilution series of the VHH, 1:1 binding model; koff error 2.13E-06; Full R2 0.9955
Experimental: as §1

[17] = molecular target: T1, recombinant human DLL3 protein; experiment: Fortebio Octet Red, DLL3 immobilised on tips, dilution series of the VHH, 1:1 binding model; kon error 9.86E+02; Full R2 0.9955
Experimental: as §1

[18] = molecular target: T1, recombinant human DLL3 protein; experiment: Fortebio Octet Red, DLL3 immobilised on tips, dilution series of the VHH, 1:1 binding model; KD error 2.22E-11; Full R2 0.9955
Experimental: as §1

Row | Binder | kon [1] [M⁻¹ s⁻¹] | koff [2] [s⁻¹] | binning response (unit not given) [3] | binning response (unit not given) [4] | binning response (unit not given) [5] | binding result [6] | binding result [7] | DLL3 / control [8] | binning response (unit not given) [9] | binning response (unit not given) [10] | binning response (unit not given) [11] | Kd [12] [nM] | koff [13] [s⁻¹] | Kd [14] [nM] | kon [15] [M⁻¹ s⁻¹] | koff [16] [s⁻¹] | kon [17] [M⁻¹ s⁻¹] | Kd [18] [nM]
1 | B1 | 5960 | 0.0006 | -73 | 0 | -90.1 | binds | binds | 29.4 | -98.7 | -23.2 | -207 | 101 |  |  |  |  |  | 
2 | B2 |  |  | 82.5 | 1280 | 121 |  |  |  | 125 | 0 | 1500 |  |  |  |  |  |  | 
3 | B3 |  |  | -48.2 | 1210 | -54.4 | binds | binds | 18.8 | 0 | 68.3 | 204 |  | 0.00103 | 5.35 | 192000 |  |  | 
4 | B4 |  |  | 347 | 3510 | 0 | binds | binds | 65.7 | 120 | 9.03 | 407 |  |  |  |  | 0.00128 | 249000 | 5.15
